The series deals with the molecule itself. As to the kind of experiment: anti-Myc immunoprecipitation from co-transfected NIH3T3 lysates, non-reducing Western blot; 58-kD disulfide-bonded homodimer. An excerpt:
This example describes the analysis of the protein structure of Penumbra protein. NIH3T3 fibroblasts were co-transfected with pcDNA3.1/Pen-Myc and pEGFP NI/Pen. The latter expressed murine Penumbra (SEQ ID NO:3) as a fusion protein with enhanced green fluorescent protein (EGFP) in its C-terminus. The Pen-Myc fusion protein was first immunoprecipitated from cell lysates using the anti-Myc MAb, Western blotted and sequentially probed with anti-Myc and anti-EGFP antibodies. It appeared that both Pen-Myc/Pen-Myc and Pen-Myc/Pen-EGFP dimers were apparent in the immunoprecipitates under non-reducing conditions and they appeared to dissociate into monomers after reduction indicating they appear to form disulfide-bonded homodimers. It appeared that under reducing conditions, all Pen-Myc fusion proteins existed as 29-kD monomers. In contrast, under non-reducing conditions, it appeared that about half of Pen-Myc protein existed as 58-kD homodimers, while the remaining Pen-Myc protein appeared to exist either as 29-kDa monomers or 89-kDa dimers with Pen-EGFP. […] The same blot was then stripped and reprobed with anti-EGFP antibodies to reveal an apparent ˜60-kD Pen-EGFP monomer and the 89-kD Pen-Myc/Pen-EGFP dimer.
In general terms: In western blotting, separated proteins are transferred to a membrane and probed.

B1: Penumbra-Myc fusion protein (murine Penumbra with C-terminal 11-aa Myc and 6-aa His tags, expressed from pcDNA3.1/Pen-Myc) (other)
chain: MARRPGVPAAYGDEFSFVSPLVKYLLFFFNMLFWVISMVMVAVGVYARLMKHAEAALACLAVDPAILLIVVGVLMFLLTFCGCIGSLRENICLLQTFSLCLTIVFLLQLAAGILGFVFSDKARGKVSEIINNAIVHYRDDLDLQNLIDFGQKKFSCCGGISYRDWSQNMYFNCSEDNPSRERCSVPYSCCLPTPRQAVINTMCGQGMQANDYLEASKVIYTNGCIDKLVNWIHSNLFLLGGVALGLAIPQLVGILLSQVLVNQIKDQIKLQLYNQQHRADPWY
notes: Seen as a 29-kD monomer on reducing gels; also called Pen-Myc fusion protein; Pen-Myc protein; not shown: 11-aa Myc tag from the pcDNA3.1 vector; 6-aa His tag from the pcDNA3.1 vector
In the case of B1, the binding result is listed as “binds”.

The values above are taken from patent publication US20090264354A1 (UNIVERSITY OF UTAH RESEARCH FOUNDATION, published 2009).
